We go through 46 molecules from patent publication US20070020327A1.

The labels stand for the following.
B1: LVFRKGDR (PAP, position 40) (peptide)
peptide: LVFRHGDR
modifications: not checked
B2: … (PSA, position 58) (peptide)
peptide: TAAHCIRNK
modifications: not checked
B3: … (PSM, position 273) (peptide)
peptide: PANEYAYRR
modifications: not checked
B4: … (PAP, position 243) (peptide)
peptide: LLSLYGIHK
modifications: not checked
B5: LTELYFEK (PAP, position 315) (peptide)
peptide: LTELYFEK
modifications: not checked
B6: Kallikrein (hK2) peptide … (position 225) (peptide)
peptide: GITSWGPEPCA
modifications: not checked
B7: Kallikrein (hK2) peptide … (position 16) (peptide)
peptide: GAVPLIQSRIV
modifications: not checked
B8: … (PSM, position 634) (peptide)
peptide: SAVKNFTEI
modifications: not checked
B9: … (PAP, position 287) (peptide)
peptide: SAHDTTVSGL
modifications: not checked
B10: … (PSA, position 43) (peptide)
peptide: RAVCGGVLV
modifications: not checked
B11: … (PSA, position 121) (peptide)
peptide: RLSEPAELT
modifications: not checked
B12: … (PSM, position 455) (peptide)
peptide: SIEGNYTLRV
modifications: not checked
B13: … (PAP, position 10) (peptide)
peptide: RAASLSLGFL
modifications: not checked
B14: … (PSA, position 155) (peptide)
peptide: SIEPEEFLT
modifications: not checked
B15: … (PAP, position 180) (peptide)
peptide: RLHPYKDFI
modifications: not checked
B16: SIEPEEFL (Kallikrein, position 159) (peptide)
peptide: SIEPEEFL
modifications: not checked
B17: … (PSM, position 673) (peptide)
peptide: RAFIDPLGL
modifications: not checked
B18: SIEPEEFL (PSA, position 155) (peptide)
peptide: SIEPEEFL
modifications: not checked
B19: … (PAP, position 189) (peptide)
peptide: ATLGKLSGL
modifications: not checked
B20: … (PSA, position 13) (peptide)
peptide: AAPLILSRI
modifications: not checked
B21: … (PSA, position 13) (peptide)
peptide: AAPLILSRIV
modifications: not checked
B22: … (PAP, position 11) (peptide)
peptide: AASLSLGFL
modifications: not checked
B23: … (PSM, position 13) (peptide)
peptide: ATARRPRWL
modifications: not checked
B24: … (PSA, position 231) (peptide)
peptide: ALPERPSLYT
modifications: not checked
B25: … (PAP, position 227) (peptide)
peptide: ATEDTMTKL
modifications: not checked
B26: ALPERPSL (PSA, position 231) (peptide)
peptide: ALPERPSL
modifications: not checked
B27: … (PSM, position 741) (peptide)
peptide: AAAETLSEV
modifications: not checked
B28: … (PAP, position 121) (peptide)
peptide: AALFPPEGV
modifications: not checked
B29: … (PSA, position 59) (peptide)
peptide: AAHCIRNKSV
modifications: not checked
B30: … (PSA, position 181) (peptide)
peptide: AQVHPQKVT
modifications: not checked
B31: … (PSA position 173, 9-mer) (peptide)
peptide: HVISNDVCA
modifications: not checked
B32: … (PAP position 188, 10-mer) (peptide)
peptide: IATLGKLSGL
modifications: not checked
B33: … (PSM position 642, 9-mer) (peptide)
peptide: IASKFSERL
modifications: not checked
B34: … (PSM position 283, 10-mer) (peptide)
peptide: IAEAVGLPSI
modifications: not checked
B35: … (PSM position 252, 10-mer) (peptide)
peptide: GVQRGNILNL
modifications: not checked
B36: … (PAP position 144, 10-mer) (peptide)
peptide: HTVPLSEDQL
modifications: not checked
B37: … (PSM position 130, 9-mer) (peptide)
peptide: IINEDGNEI
modifications: not checked
B38: ILLGRHSL (PSA position 69, 8-mer) (peptide)
peptide: ILLGRHSL
modifications: not checked
B39: … (PAP position 267, 9-mer) (peptide)
peptide: ILNHMKRAT
modifications: not checked
B40: … (PSM position 373, 10-mer) (peptide)
peptide: ILGGHRDSWV
modifications: not checked
B41: … (Kallikrein position 52 / PSA position 48, 9-mer) (peptide)
peptide: GVLVHPQWV
modifications: not checked
B42: … (PSM, position 641, 10 amino acids) (peptide)
peptide: EIASKFSERL
modifications: not checked
B43: … (PAP, position 230, 9 amino acids) (peptide)
peptide: DTMTKLREL
modifications: not checked
B44: … (PSM, position 285, 10 amino acids) (peptide)
peptide: EAVGLPSIPV
modifications: not checked
B45: … (PSM, position 397, 9 amino acids) (peptide)
peptide: EIVRSFGTL
modifications: not checked
B46: … (PSA, position 178, 11 amino acids) (peptide)
peptide: DVCAQVHPQKV
modifications: not checked

The target of one assay is HLA-A*0301 (human). In words: competition with 125I-labelled standard peptide for purified HLA, gel filtration.
Details: not given
Regarding B1, the binding affinity ratio (IC50 of standard peptide / IC50 of test peptide) was 0.0003.

The assay is the same for the next values; noted with them: remark: other sources report otherwise; scale: ratio.
For the molecule B2, the binding affinity ratio amounted to 0.0094.

Still in this assay, the particulars now being: scale: ratio.
Consider B3, for which the binding affinity ratio amounted to 0.0001.

For the next assay, the target named is HLA-A*1101 (human). The description is as above.
Details: not given
Take B1: the binding affinity ratio (IC50 of standard peptide / IC50 of test peptide) was determined as 0.0002. For B4, the binding affinity ratio (IC50 of standard peptide / IC50 of test peptide) turned out to be 0.2. As for B5, the binding affinity ratio (IC50 of standard peptide / IC50 of test peptide) was 0.01.

Staying with this assay, now noted: remark: other sources report otherwise; scale: ratio.
In the case of B2, the binding affinity ratio worked out at 0.014.

Still in this assay, the particulars now being: scale: ratio.
Regarding B3, the binding affinity ratio was determined as 0.0002.

In the next assay the target is HLA-A*0201 (human). In words: competition with 125I-labelled standard peptide 941.01 for purified HLA, gel filtration. Conditions: remark: other sources report otherwise; scale: ratio.
Consider B6, for which the binding affinity ratio amounted to 0.0009.

Still in this assay, the particulars now being: scale: ratio.
With B7, the binding affinity ratio worked out at 0.0001.

Another assay addresses HLA-A*0206 (human). The assay is described as above. The conditions noted are these: remark: other sources report otherwise; scale: ratio.
On to B6, for which the binding affinity ratio was 0.0001.

Still in this assay, the particulars now being: scale: ratio.
As for B7, the binding affinity ratio amounted to 0.0003.

A further assay concerns the target HLA-A*0201 (human). The experiment in a line: competition with 125I-labelled standard peptide 941.01 for purified HLA-A*0201, gel filtration.
Details: not given
(SEC sorts molecules by how far they enter the pores of the column.)
In the case of B8, the binding affinity ratio (IC50 of standard peptide / IC50 of test peptide) worked out at 0.0001. The same measure, in the same setting: in the case of B9 it was 0.0002; in that of B10, 0.0002; in that of B11, 0.0003.

Take B12: the binding affinity ratio (IC50 of standard peptide / IC50 of test peptide) was 0.0001. Regarding B13, the binding affinity ratio (IC50 of standard peptide / IC50 of test peptide) was found to be 0.0002. On the same count and under the same terms, in the case of B14 it was 0.0001. On to B15, for which the binding affinity ratio (IC50 of standard peptide / IC50 of test peptide) is 0.0006. The same measure, in the same setting: in the case of B16 it was 0.0001. As for B17, the binding affinity ratio (IC50 of standard peptide / IC50 of test peptide) stood at 0.0001. Turning to B18, the binding affinity ratio (IC50 of standard peptide / IC50 of test peptide) was found to be 0.0001.

A further assay has as its target HLA-A*0201 (human). The experiment in a line: inhibition of 125I probe peptide binding to purified HLA, gel filtration; ratio = IC50 standard/IC50 test.
Details: not given
In the case of B19, the binding affinity ratio amounted to 0.0005. Turning to B20, the binding affinity ratio is 0.0002.

B21: the binding affinity ratio is 0.0002. Turning to B22, the binding affinity ratio came to 0.0002. B23: the binding affinity ratio is 0.0002. As to B24, the binding affinity ratio turned out to be 0.0008.

For the molecule B25, the binding affinity ratio is 0.0002.

On to B26, for which the binding affinity ratio came out at 0.0002. With B27, the binding affinity ratio was determined as 0.0002.

With B28, the binding affinity ratio was found to be 0.0002.

Turning to B29, the binding affinity ratio amounted to 0.0002. Take B30: the binding affinity ratio is 0.0002.

The target in a further assay is HLA-A*0201 (human). In words: competition for purified HLA with 125I-labelled standard peptide 941.01 [..] as competitor, gel filtration. Conditions: scale: ratio.
Take B31: the binding affinity ratio is 0.0001. For the molecule B32, the binding affinity ratio amounted to 0.0002. Regarding B33, the binding affinity ratio is 0.0001. Take B34: the binding affinity ratio came out at 0.0001.

For the molecule B35, the binding affinity ratio came out at 0.0001. The same measure, in the same setting: in the case of B36 it was 0.0002.

Regarding B37, the binding affinity ratio stood at 0.0002. As to B38, the binding affinity ratio turned out to be 0.001. On to B39, for which the binding affinity ratio is 0.0001. Still for that read-out and setting: in the case of B40 it was 0.0003; in that of B41, 0.0003.

For the next assay, the target named is HLA-A*0201 (human). In words: competition binding to purified HLA, 125I-labelled standard peptide, gel filtration; ratio = IC50 standard / IC50 test peptide.
Details: not given
As for B42, the binding affinity ratio was determined as 0.0001. With B43, the binding affinity ratio amounted to 0.0002.

On to B44, for which the binding affinity ratio was determined as 0.0002. Same read-out and setting: in the case of B45 it was 0.0002; in that of B46, 0.0001.
